Assay results as given in US20050266512.

System: native proaerolysin

trypsin
decrease in absorbance (erythrocyte lysis in response to channel formation by active aerolysin): The solid line represents native proaerolysin activated with trypsin.
